According to US20240199745A1, “ANTI-EGFR ANTIBODY DRUG CONJUGATES” (priority 2016, published 2024):
Positions count from the first letter of the chain named.

B1: AbA-CZ (antibody, human IgG1, kappa, V domains shown)
VH: EVQLQESGPGLVKPSQTLSLTCTVSGYSISRDFAWNWIRQPPGKGLEWMGYISYNGNTRYQPSLKSRITISRDTSKNQFFLKLNSVTAADTATYYCVTASRGFPYWGQGTLVTVSS
VL: DIQMTQSPSSMSVSVGDRVTITCHSSQDINSNIGWLQQKPGKSFKGLIYHGTNLDDGVPSRFSGSGSGTDYTLTISSLQPEDFATYYCVQYAQFPWTFGGGTKLEIKR
modifications: synthon CZ on reduced interchain cysteines; average DAR 3.2 per ADC
B2: AbA-SR (antibody, human IgG1, kappa, V domains shown)
VH: B1 VH
VL: B1 VL
modifications: synthon SR on reduced interchain cysteines; average DAR 2.3 per ADC
B3: AbA-YY (antibody, human IgG1, kappa, V domains shown)
VH: B1 VH
VL: B1 VL
modifications: synthon YY on reduced interchain cysteines; average DAR 2.2 per ADC
B4: AbG-ZT (antibody, human IgG1, kappa, V domains shown)
VH: B1 VH with R31N, P41L, N55K, F103L
VL: B1 VL with N30T, S31Y, T52A, A92D, Q93E
modifications: synthon ZT on reduced interchain cysteines; average DAR 1.6 per ADC
B5: AbK-SR (antibody, human IgG1, kappa, V domains shown)
VH: B1 VH with Y105W
VL: B1 VL with N30T, S31Y, I33V, T52S, D56H, A92D, Q93D
modifications: synthon SR on reduced interchain cysteines; average DAR 2.3 per ADC
B6: AbA-YG (antibody, human IgG1, kappa, V domains shown)
VH: B1 VH
VL: B1 VL
modifications: synthon YG on reduced interchain cysteines; average DAR 1.9 per ADC
B7: AbA-AAA (antibody, human IgG1, kappa, V domains shown)
VH: B1 VH
VL: B1 VL
modifications: synthon AAA on reduced interchain cysteines; average DAR 2 per ADC
B8: AbK-ZZ (antibody, human IgG1, kappa, V domains shown)
VH: B1 VH with Y105W
VL: B1 VL with N30T, S31Y, I33V, T52S, D56H, A92D, Q93D
modifications: synthon ZZ on reduced interchain cysteines; average DAR 1.9 per ADC
B9: AbK-KZ (antibody, human IgG1, kappa, V domains shown)
VH: B1 VH with Y105W
VL: B1 VL with N30T, S31Y, I33V, T52S, D56H, A92D, Q93D
modifications: synthon KZ on reduced interchain cysteines; average DAR 2.3 per ADC
B10: AbG-ZZ (antibody, human IgG1, kappa, V domains shown)
VH: B1 VH with R31N, P41L, N55K, F103L
VL: B1 VL with N30T, S31Y, T52A, A92D, Q93E
modifications: synthon ZZ on reduced interchain cysteines; average DAR 1.4 per ADC
B11: AbG-YG (antibody, human IgG1, kappa, V domains shown)
VH: B1 VH with R31N, P41L, N55K, F103L
VL: B1 VL with N30T, S31Y, T52A, A92D, Q93E
modifications: synthon YG on reduced interchain cysteines; average DAR 3.7 per ADC
B12: AbG-XW (antibody, human IgG1, kappa, V domains shown)
VH: B1 VH with R31N, P41L, N55K, F103L
VL: B1 VL with N30T, S31Y, T52A, A92D, Q93E
modifications: synthon XW on reduced interchain cysteines; average DAR 3.7 per ADC
B13: AbG-SR (antibody, human IgG1, kappa, V domains shown)
VH: B1 VH with R31N, P41L, N55K, F103L
VL: B1 VL with N30T, S31Y, T52A, A92D, Q93E
modifications: synthon SR on reduced interchain cysteines; average DAR 2.8 per ADC
B14: AbB-SR (antibody, human IgG1, kappa, V domains shown)
VH: B1 VH with R31N, N55K, Y105W
VL: B1 VL
modifications: synthon SR on reduced interchain cysteines; average DAR 2.1 per ADC
B15: AbA-XW (antibody, human IgG1, kappa, V domains shown)
VH: B1 VH
VL: B1 VL
modifications: synthon XW on reduced interchain cysteines; average DAR 3.7 per ADC
B16: AbB-ZZ (antibody, human IgG1, kappa, V domains shown)
VH: B1 VH with R31N, N55K, Y105W
VL: B1 VL
modifications: synthon ZZ on reduced interchain cysteines; average DAR 1.1 per ADC
B17: AbA-KZ (antibody, human IgG1, kappa, V domains shown)
VH: B1 VH
VL: B1 VL
modifications: synthon KZ on reduced interchain cysteines; average DAR 2 per ADC
B18: AbK-ZT (antibody, human IgG1, kappa, V domains shown)
VH: B1 VH with Y105W
VL: B1 VL with N30T, S31Y, I33V, T52S, D56H, A92D, Q93D
modifications: synthon ZT on reduced interchain cysteines; average DAR 1.3 per ADC
B19: AbG-KZ (antibody, human IgG1, kappa, V domains shown)
VH: B1 VH with R31N, P41L, N55K, F103L
VL: B1 VL with N30T, S31Y, T52A, A92D, Q93E
modifications: synthon KZ on reduced interchain cysteines; average DAR 2.7 per ADC
B20: AbB-YG (antibody, human IgG1, kappa, V domains shown)
VH: B1 VH with R31N, N55K, Y105W
VL: B1 VL
modifications: synthon YG on reduced interchain cysteines; average DAR 1.1 per ADC
B21: AbK-SE (antibody, human IgG1, kappa, V domains shown)
VH: B1 VH with Y105W
VL: B1 VL with N30T, S31Y, I33V, T52S, D56H, A92D, Q93D
modifications: synthon SE on reduced interchain cysteines; average DAR 2.7 per ADC
B22: AbB-KZ (antibody, human IgG1, kappa, V domains shown)
VH: B1 VH with R31N, N55K, Y105W
VL: B1 VL
modifications: synthon KZ on reduced interchain cysteines; average DAR 1.9 per ADC
B23: AbB-SE (antibody, human IgG1, kappa, V domains shown)
VH: B1 VH with R31N, N55K, Y105W
VL: B1 VL
modifications: synthon SE on reduced interchain cysteines; average DAR 2.2 per ADC
B24: AbB-ZT (antibody, human IgG1, kappa, V domains shown)
VH: B1 VH with R31N, N55K, Y105W
VL: B1 VL
modifications: synthon ZT on reduced interchain cysteines; average DAR 1.4 per ADC
B25: AbB-XW (antibody, human IgG1, kappa, V domains shown)
VH: B1 VH with R31N, N55K, Y105W
VL: B1 VL
modifications: synthon XW on reduced interchain cysteines; average DAR 3.2 per ADC
B26: AbK-YG (antibody, human IgG1, kappa, V domains shown)
VH: B1 VH with Y105W
VL: B1 VL with N30T, S31Y, I33V, T52S, D56H, A92D, Q93D
modifications: synthon YG on reduced interchain cysteines; average DAR 0.9 per ADC
B27: AbG-SE (antibody, human IgG1, kappa, V domains shown)
VH: B1 VH with R31N, P41L, N55K, F103L
VL: B1 VL with N30T, S31Y, T52A, A92D, Q93E
modifications: synthon SE on reduced interchain cysteines; average DAR 3.8 per ADC
B28: AbB-CZ (antibody, human IgG1, kappa, V domains shown)
VH: B1 VH with R31N, N55K, Y105W
VL: B1 VL
modifications: synthon CZ on reduced interchain cysteines; average DAR 3.5 per ADC
B29: AbA-AAD (antibody, human IgG1, kappa, V domains shown)
VH: B1 VH
VL: B1 VL
modifications: synthon AAD on reduced interchain cysteines; average DAR 3.3 per ADC
B30: AbA-SE (antibody, human IgG1, kappa, V domains shown)
VH: B1 VH
VL: B1 VL
modifications: synthon SE on reduced interchain cysteines; average DAR 2.8 per ADC
B31: AbK-XW (antibody, human IgG1, kappa, V domains shown)
VH: B1 VH with Y105W
VL: B1 VL with N30T, S31Y, I33V, T52S, D56H, A92D, Q93D
modifications: synthon XW on reduced interchain cysteines; average DAR 2.8 per ADC

Biological target: human EGFR (huEGFR) over-expressed on mcl-1-/- mouse embryonic fibroblasts (human, UniProt P00533 25-1210)
Assay: cell-based or functional assay

Binder	huEGFR+ mcl-1-/- MEF EC50
B1	0.3 nM
B2	5.9 nM
B3	460 nM
B4	33 nM
B5	8.9 nM
B6	6.4 nM
B7	220 nM
B8	45 nM
B9	224 nM
B10	68 nM
B11	1 nM
B12	19 nM
B13	7 nM
B14	7 nM
B15	32 nM
B16	7.4 nM

Binder	huEGFR+ mcl-1-/- MEF EC50
B17	152 nM
B18	0.2 nM
B19	96 nM
B20	3.3 nM
B21	161 nM
B22	55 nM
B23	39 nM
B24	8.9 nM
B25	0.65 nM
B26	37 nM
B27	24 nM
B28	5.9 nM
B29	65 nM
B30	105 nM
B31	0.6 nM

Biological target: EGFR on EGFR positive non-small cell lung cancer cells NCI-H1650 (UniProt P00533 25-1210)
Assay: cell-based or functional assay

Binder	H1650 CTG-3D EC50	H1650 GFP Flourescence EC50
B1	0.88 µg/mL	1.24 µg/mL
B2	2.12 µg/mL	2.22 µg/mL
B3	> 40 µg/mL	7.85 µg/mL
B4	0.1 µg/mL	0.08 µg/mL
B5	1.74 µg/mL	1.36 µg/mL
B6	3.8 µg/mL	2.84 µg/mL
B7	0.65 µg/mL	0.98 µg/mL
B8	0.03 µg/mL	0.16 µg/mL
B9	> 40 µg/mL	> 40 µg/mL
B10	0.47 µg/mL	0.44 µg/mL
B11	1.24 µg/mL	0.63 µg/mL
B12	> 40 µg/mL	> 40 µg/mL
B13	1.31 µg/mL	1.38 µg/mL
B14	0.62 µg/mL	2.1 µg/mL
B15	> 40 µg/mL	> 40 µg/mL
B16	0.52 µg/mL	0.61 µg/mL

Binder	H1650 CTG-3D EC50	H1650 GFP Flourescence EC50
B17	> 40 µg/mL	29.3 µg/mL
B18	0.05 µg/mL	0.12 µg/mL
B19	38.3 µg/mL	38.2 µg/mL
B20	3.28 µg/mL	1.55 µg/mL
B21	2.67 µg/mL	1.68 µg/mL
B22	16.5 µg/mL	37.7 µg/mL
B23	0.59 µg/mL	2.18 µg/mL
B24	0.26 µg/mL	0.64 µg/mL
B25	6.92 µg/mL	12.1 µg/mL
B26	12.3 µg/mL	10.4 µg/mL
B27	0.96 µg/mL	0.99 µg/mL
B28	1.27 µg/mL	0.88 µg/mL
B29	0.79 µg/mL	0.36 µg/mL
B30	4 µg/mL	4.23 µg/mL
B31	> 40 µg/mL	8.53 µg/mL
